B1: Recombinant PKM2 (His-SUMO tag removed) (enzyme)
chain: not shown
B2: Recombinant SARM1 (affinity tags removed by TEV protease) (natural protein, human, UniProt Q6SZW1 28-724, looked up)
chain: LAVPGPDGGGGTGPWWAAGGRGPREVSPGAGTEVQDALERALPELQQALSALKQAGGARAVGAGLAEVFQLVEEAWLLPAVGREVAQGLCDAIRLDGGLDLLLRLLQAPELETRVQAARLLEQILVAENRDRVARIGLGVILNLAKEREPVELARSVAGILEHMFKHSEETCQRLVAAGGLDAVLYWCRRTDPALLRHCALALGNCALHGGQAVQRRMVEKRAAEWLFPLAFSKEDELLRLHACLAVAVLATNKEVEREVERSGTLALVEPLVASLDPGRFARCLVDASDTSQGRGPDDLQRLVPLLDSNRLEAQCIGAFYLCAEAAIKSLQGKTKVFSDIGAIQSLKRLVSYSTNGTKSALAKRALRLLGEEVPRPILPSVPSWKEAEVQTWLQQIGFSKYCESFREQQVDGDLLLRLTEEELQTDLGMKSGITRKRFFRELTELKTFANYSTCDRSNLADWLGSLDPRFRQYTYGLVSCGLDRSLLHRVSEQQLLEDCGIHLGVHRARILTAAREMLHSPLPCTGGKPSGDTPDVFISYRRNSGSQLASLLKVHLQLHGFSVFIDVEKLEAGKFEDKLIQSVMGARNFVLVLSPGALDKCMQDHDCKDWVHKEIVTALSCGKNIVPIIDGFEWPEPQVLPEDMQAVLTFNGIKWSHEYQEATIEKIIRFLQGRSSRDSSAGSDTSLEGAAPMGPT
B3: Recombinant PKM1 (His-SUMO tag removed) (enzyme)
chain: not shown

Tests used:
[1] = biological target: B2; experiment: SPR
[2] = biological target: His-tagged PKM1 (human, UniProt P14618-2 1-531); experiment: AlphaScreen or HTRF

| Kd [1] | IC50 [2] | Binder |
| --- | --- | --- |
| 1310 nM | – | B1 |
| – | 3460 nM | B2 |
| 2890 nM | – | B3 |

From doi:10.1101/2025.05.28.656718 (bioRxiv, 2025)
